B1: CRY1 (third protein in the mammalian three-hybrid assay) [Arabidopsis] / E-COP1 [Arabidopsis] (parent complex)
chain 1: MSGSVSGCGSGGCSIVWFRRDLRVEDNPALAAAVRAGPVIALFVWAPEEEGHYHPGRVSRWWLKNSLAQLDSSLRSLGTCLITKRSTDSVASLLDVVKSTGASQIFFNHLYDPLSLVRDHRAKDVLTAQGIAVRSFNADLLYEPWEVTDELGRPFSMFAAFWERCLSMPYDPESPLLPPKKIISGDVSKCVADPLVFEDDSEKGSNALLARAWSPGWSNGDKALTTFINGPLLEYSKNRRKADSATTSFLSPHLHFGEVSVRKVFHLVRIKQVAWANEGNEAGEESVNLFLKSIGLREYSRYISFNHPYSHERPLLGHLKFFPWAVDENYFKAWRQGRTGYPLVDAGMRELWATGWLHDRIRVVVSSFFVKVLQLPWRWGMKYFWDTLLDADLESDALGWQYITGTLPDSREFDRIDNPQFEGYKFDPNGEYVRRWLPELSRLPTDWIHHPWNAPESVLQAAGIELGSNYPLPIVGLDEAKARLHEALSQMWQLEAASRAAIENGSEEGLGDSAEVEEAPIEFPRDITMEETEPTRLNPNRRYEDQMVPSITSSLIRPEEDEESSLNLRNSVGDSRAEVPRNMVNTNQAQQRRAEPASNQVTAMIPEFNIRIVAESTEDSTAESSSSGRRERSGGIVPEWSPGYSEQFPSEENGIGGGSTTSSYLQNHHEILNWRRLSQTG
chain 2: MEEISTDPVVPAVKPDPRTSSVGEGANRHENDDGGSGGSEIGAPDLDKDLLCPICMQIIKDAFLTACGHSFCYMCIITHLRNKSDCPCCSQHLTNNQLYPNFLLDKLLKKTSARHVSKTASPLDQFREALQRGCDVSIKEVDNLLTLLAERKRKMEQEEAERNMQILLDFLHCLRKQKVDELNEVQTDLQYIKEDINAVERHRIDLYRARDRYSVKLRMLGDDPSTRNAWPHEKNQIGFNSNSLSIRGGNFVGNYQNKKVEGKAQGSSHGLPKKDALSGSDSQSLNQSTVSMARKKRIHAQFNDLQECYLQKRRQLADQPNSKQENDKSVVRREGYSNGLADFQSVLTTFTRYSRLRVIAEIRHGDIFHSANIVSSIEFDRDDELFATAGVSRCIKVFDFSSVVNEPADMQCPIVEMSTRSKLSCLSWNKHEKNHIASSDYEGIVTVWDVTTRQSLMEYEEHEKRAWSVDFSRTEPSMLVSGSDDCKVKVWCTRQEASVINIDMKANICCVKYNPGSSNYIAVGSADHHIHYYDLRNISQPLHVFSGHKKAVSYVKFLSNNELASASTDSTLRLWDVKDNLPVRTFRGHTNEKNFVGLTVNSEYLACGSETNEVYVYHKEITRPVTSHRFGSPDMDDAEEEAGSYFISAVCWKSDSPTMLTANSQGTIKVLVLAA

The assay covers variants of B1. The assay can be described thus: luciferase complementation imaging (LCI); transfected N. benthamiana leaves, n = 14, CCD camera; value is the mean ('+'); median about 0.44, box about 0.22-0.68; parent: 1; read off a plot.
Regarding chain 1 V548A, chain 1 P549A, the ratio to parent is ~0.43.

These data come from PMC11886768 (2025).
